Tests used:
Conditions in all cases: remark: other sources report otherwise
[1] = biological target: T1, N-terminally SNAP-tagged human dopamine D2L receptor (human), P14416; test: single-molecule TIRF microscopy (apparent lifetime of particle colocalization); Alexa546-labelled SNAP constructs on living CHO cells, ligand-free; time from the beginning of tracking to a one-step intensity change, 120 trajectories, one-phase exponential decay; apparent
T1 chain: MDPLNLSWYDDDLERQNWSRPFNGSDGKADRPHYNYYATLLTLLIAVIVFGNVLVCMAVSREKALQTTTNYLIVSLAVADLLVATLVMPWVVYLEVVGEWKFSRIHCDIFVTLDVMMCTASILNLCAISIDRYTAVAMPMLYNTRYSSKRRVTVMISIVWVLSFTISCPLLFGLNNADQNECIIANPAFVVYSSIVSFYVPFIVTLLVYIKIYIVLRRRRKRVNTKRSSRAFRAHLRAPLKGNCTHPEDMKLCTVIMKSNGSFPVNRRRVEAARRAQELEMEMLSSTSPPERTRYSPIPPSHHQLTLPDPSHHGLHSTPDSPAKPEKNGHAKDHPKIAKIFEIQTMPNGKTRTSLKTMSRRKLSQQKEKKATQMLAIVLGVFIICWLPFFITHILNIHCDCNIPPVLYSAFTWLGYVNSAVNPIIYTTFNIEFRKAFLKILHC

[2] = biological target: T1, N-terminally SNAP-tagged human dopamine …; test: single-molecule TIRF microscopy (intensity distribution of fluorescent spots); Alexa546-BG-labelled SNAP-D2L on living CHO cells, incubated 1 h with the bivalent antagonists 2a or 2b at 10-fold Ki
[3] = biological target: T1, N-terminally SNAP-tagged human dopamine …; test: single-molecule TIRF microscopy (apparent lifetime of particle colocalization); Alexa546-labelled SNAP-D2L on living CHO cells with the bivalent ligand 2a; 120 trajectories, one-phase exponential decay; apparent
[4] = biological target: T1, N-terminally SNAP-tagged human dopamine …; test: single-molecule TIRF microscopy (apparent lifetime of particle colocalization); Alexa546-labelled SNAP-D2L on living CHO cells with the monovalent ligand 1a; 120 trajectories, one-phase exponential decay; apparent
[5] = biological target: T1, N-terminally SNAP-tagged human dopamine …; test: single-molecule TIRF microscopy (lifetime of transient dimers from intensity trajectories); Alexa546-labelled SNAP-D2L on living CHO cells, ligand-free; 120 dimers whose trajectories show intensity doubling and return; one-phase exponential fit
[6] = biological target: T1, N-terminally SNAP-tagged human dopamine …; test: single-molecule TIRF microscopy (intensity distribution of fluorescent spots); receptors on living CHO cells labelled 1 h at 37 °C with a fluorescent (Cy3B) antagonist (1c, 4a or 4b) at 10-fold Ki; spots fitted with a mixed Gaussian model
[7] = biological target: T1, N-terminally SNAP-tagged human dopamine …; test: single-molecule TIRF microscopy (intensity distribution of fluorescent spots); living stably transfected CHO cells, SNAP-tag labelled with 1 uM Alexa546-BG, ligand-free; spots of the first 10 frames fitted with a mixed Gaussian model; room temperature (24.0 ± 0.3 °C), imaging buffer pH 7.4; SNAP-D2L at 0.67 ± 0.03 spots um^-2
[8] = biological target: T1, N-terminally SNAP-tagged human dopamine …; test: single-molecule TIRF microscopy (intensity distribution of fluorescent spots); Alexa546-BG-labelled SNAP-D2L on living CHO cells, incubated 1 h with the unsymmetrical control ligands 3a or 3b (one pharmacophore, one non-binding motif) at 10-fold Ki

B1: N-terminally SNAP-tagged human dopamine D2L receptor, P14416 1-443 (receptor)
chain: MDPLNLSWYDDDLERQNWSRPFNGSDGKADRPHYNYYATLLTLLIAVIVFGNVLVCMAVSREKALQTTTNYLIVSLAVADLLVATLVMPWVVYLEVVGEWKFSRIHCDIFVTLDVMMCTASILNLCAISIDRYTAVAMPMLYNTRYSSKRRVTVMISIVWVLSFTISCPLLFGLNNADQNECIIANPAFVVYSSIVSFYVPFIVTLLVYIKIYIVLRRRRKRVNTKRSSRAFRAHLRAPLKGNCTHPEDMKLCTVIMKSNGSFPVNRRRVEAARRAQELEMEMLSSTSPPERTRYSPIPPSHHQLTLPDPSHHGLHSTPDSPAKPEKNGHAKDHPKIAKIFEIQTMPNGKTRTSLKTMSRRKLSQQKEKKATQMLAIVLGVFIICWLPFFITHILNIHCDCNIPPVLYSAFTWLGYVNSAVNPIIYTTFNIEFRKAFLKILHC
modifications: here or on the partner: Alexa546 covalently on the SNAP-tag through benzylguanine (Alexa546-BG) in the SNAP-labelling experiments; Alexa546 covalently on the SNAP-tag through benzylguanine (Alexa546-BG) in the SNAP-labelling experiments
apparent colocalization lifetime (tau) [1]: 0.46 s | percent of fluorescent spots that are dimers, with bivalent antagonist 2a [2]: 66% | percent of fluorescent spots that are dimers, with bivalent antagonist 2b [2]: 58% | apparent colocalization lifetime (tau), with bivalent ligand 2a [3]: 1.16 s | apparent colocalization lifetime (tau), with monovalent ligand 1a [4]: 0.42 s | half-life (t1/2) of the transient dimer [5]: 0.35 s | lifetime of the transient dimer [5]: 0.5 s | percent of fluorescent spots that are dimers, labelled with antagonist 1c [6]: 26% | percent of fluorescent spots that are monomers, labelled with antagonist 1c [6]: 74% | percent of fluorescent spots that are dimers [7]: 30% | percent of fluorescent spots that are monomers [7]: 70% | stoichiometry N [7]: 2 | percent of fluorescent spots that are dimers, with control ligand 3a [8]: 33% | percent of fluorescent spots that are dimers, with control ligand 3b [8]: 34% | percent of fluorescent spots that are monomers, with control ligand 3a [8]: 67% | percent of fluorescent spots that are monomers, with control ligand 3b [8]: 66%

Source: article PMC5018964, “Visualization and ligand-induced modulation of dopamine receptor dimerization at the single molecule level” (Scientific Reports, 2016)
